B1: Keratin, type I cytoskeletal 20 (Homo sapiens), P35900 (parent)
chain: MDFSRRSFHRSLSSSLQAPVVSTVGMQRLGTTPSVYGGAGGRGIRISNSRHTVNYGSDLTGGGDLFVGNEKMAMQNLNDRLASYLEKVRTLEQSNSKLEVQIKQWYETNAPRAGRDYSAYYRQIEELRSQIKDAQLQNARCVLQIDNAKLAAEDFRLKYETERGIRLTVEADLQGLNKVFDDLTLHKTDLEIQIEELNKDLALLKKEHQEEVDGLHKHLGNTVNVEVDAAPGLNLGVIMNEMRQKYEVMAQKNLQEAKEQFERQTAVLQQQVTVNTEELKGTEVQLTELRRTSQSLEIELQSHLSMKESLEHTLEETKARYSSQLANLQSLLSSLEAQLMQIRSNMERQNNEYHILLDIKTRLEQEIATYRRLLEGEDVKTTEYQLSTLEERDIKKTRKIKTVVQEVVDGKVVSSEVKEVEENI
partner: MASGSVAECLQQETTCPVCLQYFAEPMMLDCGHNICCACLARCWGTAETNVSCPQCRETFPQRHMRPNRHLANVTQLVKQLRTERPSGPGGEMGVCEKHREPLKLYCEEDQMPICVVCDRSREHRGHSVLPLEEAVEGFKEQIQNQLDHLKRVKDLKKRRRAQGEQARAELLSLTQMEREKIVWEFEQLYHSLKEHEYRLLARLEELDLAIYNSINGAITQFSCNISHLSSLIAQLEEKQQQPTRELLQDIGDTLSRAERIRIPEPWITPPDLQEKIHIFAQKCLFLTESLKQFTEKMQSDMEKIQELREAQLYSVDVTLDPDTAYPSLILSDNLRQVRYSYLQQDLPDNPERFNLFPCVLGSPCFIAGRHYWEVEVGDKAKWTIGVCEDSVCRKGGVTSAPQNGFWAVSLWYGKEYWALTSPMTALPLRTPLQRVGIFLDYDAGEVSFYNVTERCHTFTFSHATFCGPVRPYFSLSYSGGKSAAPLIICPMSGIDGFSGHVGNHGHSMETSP
B2: Seipin (Homo sapiens), Q96G97-4 (parent)
chain: MSTEKVDQKEEAGEKEVCGDQIKGPDKEEEPPAAASHGQGWRPGGRAARNARPEPGARHPALPAMVNDPPVPALLWAQEVGQVLAGRARRLLLQFGVLFCTILLLLWVSVFLYGSFYYSYMPTVSHLSPVHFYYRTDCDSSTTSLCSFPVANVSLTKGGRDRVLMYGQPYRVTLELELPESPVNQDLGMFLVTISCYTRGGRIISTSSRSVMLHYRSDLLQMLDTLVFSSLLLFGFAEQKQLLEVELYADYRENSYVPTTGAIIEIHSKRIQLYGAYLRIHAHFTGLRYLLYNFPMTCAFIGVASNFTFLSVIVLFSYMQWVWGGIWPRHRFSLQVNIRKRDNSRKEVQRRISAHQPGPEGQEESTPQSDVTEDGESPEDPSGTEGQLSEEEKPDQQPLSGEEELEPEASDGSGSWEDAALLTEANLPAPAPASASAPVLETLGSSEPAGGALRQRPTCSSS
B3: Pleckstrin homology domain-containing family G member 6 (Homo sapiens), Q3KR16 (parent)
chain: MKAFGPPHEGPLQGLVASRIETYGGRHRASAQSTAGRLYPRGYPVLDPSRRRLQQYVPFARGSGQARGLSPMRLRDPEPEKRHGGHVGAGLLHSPKLKELTKAHELEVRLHTFSMFGMPRLPPEDRRHWEIGEGGDSGLTIEKSWRELVPGHKEMSQELCHQQEALWELLTTELIYVRKLKIMTDLLAAGLLNLQRVGLLMEVSAETLFGNVPSLIRTHRSFWDEVLGPTLEETRASGQPLDPIGLQSGFLTFGQRFHPYVQYCLRVKQTMAYAREQQETNPLFHAFVQWCEKHKRSGRQMLCDLLIKPHQRITKYPLLLHAVLKRSPEARAQEALNAMIEAVESFLRHINGQVRQGEEQESLAAAAQRIGPYEVLEPPSDEVEKNLRPFSTLDLTSPMLGVASEHTRQLLLEGPVRVKEGREGKLDVYLFLFSDVLLVTKPQRKADKAKVIRPPLMLEKLVCQPLRDPNSFLLIHLTEFQCVSSALLVHCPSPTDRAQWLEKTQQAQAALQKLKAEEYVQQKRELLTLYRDQDRESPSTRPSTPSLEGSQSSAEGRTPEFSTIIPHLVVTEDTDEDAPLVPDDTSDSGYGTLIPGTPTGSRSPLSRLRQRALRRDPRLTFSTLELRDIPLRPHPPDPQAPQRRSAPELPEGILKGGSLPQEDPPTWSEEEDGASERGNVVVETLHRARLRGQLPSSPTHADSAGESPWESSGEEEEEGPLFLKAGHTSLRPMRAEDMLREIREELASQRIEGAEEPRDSRPRKLTRAQLQRMRGPHIIQLDTPLSASEV
partner: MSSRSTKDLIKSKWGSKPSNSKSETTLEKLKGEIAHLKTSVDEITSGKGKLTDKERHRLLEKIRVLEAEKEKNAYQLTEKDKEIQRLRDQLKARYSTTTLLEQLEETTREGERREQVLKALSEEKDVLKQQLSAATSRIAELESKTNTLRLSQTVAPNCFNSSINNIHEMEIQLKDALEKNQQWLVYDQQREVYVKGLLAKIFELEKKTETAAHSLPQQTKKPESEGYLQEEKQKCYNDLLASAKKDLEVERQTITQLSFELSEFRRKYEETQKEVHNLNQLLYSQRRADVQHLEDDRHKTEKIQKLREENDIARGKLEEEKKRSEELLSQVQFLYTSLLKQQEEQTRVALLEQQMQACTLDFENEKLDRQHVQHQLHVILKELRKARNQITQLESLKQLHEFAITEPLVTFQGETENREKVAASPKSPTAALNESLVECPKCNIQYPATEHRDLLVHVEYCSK
B4: Probable splicing factor YJU2B (Homo sapiens), P13994 (parent)
chain: MGERKGVNKYYPPDFNPEKHGSLNRYHNSHPLRERARKLSQGILIIRFEMPYNIWCDGCKNHIGMGVRYNAEKKKVGNYYTTPIYRFRMKCHLCVNYIEMQTDPANCDYVIVSGAQRKEERWDMADNEQVLTTEHEKKQKLETDAMFRLEHGEADRSTLKKALPTLSHIQEAQSAWKDDFALNSMLRRRFREKKKAIQEEEERDQALQAKASLTIPLVPETEDDRKLAALLKFHTLDSYEDKQKLKRTEIISRSWFPSAPGSASSSKVSGVLKKLAQSRRTALATSPITVGDLGIVRRRSRDVPESPQHAADTPKSGEPRVPEEAAQDRPMSPGDCPPETTETPKCSSPRGQEGSRQDKPLSPAGSSQEAADTPDTRHPCSLGSSLVADYSDSESE
B5: Regulator of G-protein signaling 20 (Homo sapiens), O76081 (parent)
chain: MPQLSQDNQECLQKHFSRPSIWTQFLPLFRAQRYNTDIHQITENEGDLRAVPDIKSFPPAQLPDSPAAPKLFGLLSSPLSSLARFFSHLLRRPPPEAPRRRLDFSPLLPALPAARLSRGHEELPGRLSLLLGAALALPGRPSGGRPLRPPHPVAKPREEDATAGQSSPMPQMGSERMEMRKRQMPAAQDTPGAAPGQPGAGSRGSNACCFCWCCCCSCSCLTVRNQEDQRPTIASHELRADLPTWEESPAPTLEEVNAWAQSFDKLMVTPAGRNAFREFLRTEFSEENMLFWMACEELKKEANKNIIEEKARIIYEDYISILSPKEVSLDSRVREVINRNMVEPSQHIFDDAQLQIYTLMHRDSYPRFMNSAVYKDLLQSLSEKSIEA
partner: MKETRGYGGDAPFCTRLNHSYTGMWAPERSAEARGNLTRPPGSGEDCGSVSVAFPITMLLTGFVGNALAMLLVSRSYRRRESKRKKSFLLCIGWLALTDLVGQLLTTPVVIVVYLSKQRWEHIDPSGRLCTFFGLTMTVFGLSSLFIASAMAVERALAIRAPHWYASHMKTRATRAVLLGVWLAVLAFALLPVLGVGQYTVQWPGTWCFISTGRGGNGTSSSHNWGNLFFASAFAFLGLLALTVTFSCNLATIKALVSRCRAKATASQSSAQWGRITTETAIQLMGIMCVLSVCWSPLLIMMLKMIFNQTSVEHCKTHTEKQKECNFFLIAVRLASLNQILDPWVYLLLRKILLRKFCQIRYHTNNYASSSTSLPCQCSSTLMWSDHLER
B6: Proteasome subunit beta type-1 (Homo sapiens), P20618 (parent)
chain: MLSSTAMYSAPGRDLGMEPHRAAGPLQLRFSPYVFNGGTILAIAGEDFAIVASDTRLSEGFSIHTRDSPKCYKLTDKTVIGCSGFHGDCLTLTKIIEARLKMYKHSNNKAMTTGAIAAMLSTILYSRRFFPYYVYNIIGGLDEEGKGAVYSFDPVGSYQRDSFKAGGSASAMLQPLLDNQVGFKNMQNVEHVPLSLDRAMRLVKDVFISAAERDVYTGDALRICIVTKEGIREETVSLRKD
partner: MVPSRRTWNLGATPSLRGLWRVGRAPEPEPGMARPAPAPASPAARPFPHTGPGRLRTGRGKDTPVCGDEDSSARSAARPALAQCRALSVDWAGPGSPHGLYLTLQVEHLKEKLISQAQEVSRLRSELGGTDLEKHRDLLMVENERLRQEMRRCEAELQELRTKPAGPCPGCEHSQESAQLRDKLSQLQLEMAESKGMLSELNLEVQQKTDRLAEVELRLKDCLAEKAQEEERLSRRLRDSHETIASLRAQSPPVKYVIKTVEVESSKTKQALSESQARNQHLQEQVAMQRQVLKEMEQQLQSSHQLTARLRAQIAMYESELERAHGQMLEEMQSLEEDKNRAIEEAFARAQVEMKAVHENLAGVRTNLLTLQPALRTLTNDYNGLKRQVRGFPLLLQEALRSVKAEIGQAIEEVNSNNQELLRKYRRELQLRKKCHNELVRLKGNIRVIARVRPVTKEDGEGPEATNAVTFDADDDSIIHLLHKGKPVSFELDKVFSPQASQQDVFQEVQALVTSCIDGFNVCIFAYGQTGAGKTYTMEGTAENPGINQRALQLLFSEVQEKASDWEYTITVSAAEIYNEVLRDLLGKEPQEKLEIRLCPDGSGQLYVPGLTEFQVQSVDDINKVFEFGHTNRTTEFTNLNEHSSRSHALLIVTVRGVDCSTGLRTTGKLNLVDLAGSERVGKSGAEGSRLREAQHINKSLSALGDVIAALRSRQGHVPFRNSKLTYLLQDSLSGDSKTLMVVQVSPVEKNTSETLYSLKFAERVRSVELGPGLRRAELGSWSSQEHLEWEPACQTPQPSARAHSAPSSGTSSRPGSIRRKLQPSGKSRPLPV
B7: Zinc finger protein Aiolos (Homo sapiens), Q9UKT9 (parent)
chain: MEDIQTNAELKSTQEQSVPAESAAVLNDYSLTKSHEMENVDSGEGPANEDEDIGDDSMKVKDEYSERDENVLKSEPMGNAEEPEIPYSYSREYNEYENIKLERHVVSFDSSRPTSGKMNCDVCGLSCISFNVLMVHKRSHTGERPFQCNQCGASFTQKGNLLRHIKLHTGEKPFKCHLCNYACQRRDALTGHLRTHSVEKPYKCEFCGRSYKQRSSLEEHKERCRTFLQSTDPGDTASAEARHIKAEMGSERALVLDRLASNVAKRKSSMPQKFIGEKRHCFDVNYNSSYMYEKESELIQTRMMDQAINNAISYLGAEALRPLVQTPPAPTSEMVPVISSMYPIALTRAEMSNGAPQELEKKSIHLPEKSVPSERGLSPNNSGHDSTDTDSNHEERQNHIYQQNHMVLSRARNGMPLLKEVPRSYELLKPPPICPRDSVKVINKEGEVMDVYRCDHCRVLFLDYVMFTIHMGCHGFRDPFECNMCGYRSHDRYEFSSHIARGEHRALLK
partner: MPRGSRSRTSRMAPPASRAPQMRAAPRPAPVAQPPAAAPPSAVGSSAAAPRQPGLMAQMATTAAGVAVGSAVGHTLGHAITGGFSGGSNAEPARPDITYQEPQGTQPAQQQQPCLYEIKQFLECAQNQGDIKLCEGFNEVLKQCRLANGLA

Variants of: B1
Conditions: with tri27_human TRIM27, P14373

effect of a mutation on the interaction	Variant
with no effect	S309Y
with no effect	S129N

Variants of: B2
Conditions: with bscl2_human BSCL2, Q96G97

effect of a mutation on the interaction	Variant
with no effect	D20E

Variants of: B2
Conditions: with tmm19_human TMEM19, Q96HH6
Sequence of tmm19_human TMEM19, Q96HH6 (Q96HH6 whole entry): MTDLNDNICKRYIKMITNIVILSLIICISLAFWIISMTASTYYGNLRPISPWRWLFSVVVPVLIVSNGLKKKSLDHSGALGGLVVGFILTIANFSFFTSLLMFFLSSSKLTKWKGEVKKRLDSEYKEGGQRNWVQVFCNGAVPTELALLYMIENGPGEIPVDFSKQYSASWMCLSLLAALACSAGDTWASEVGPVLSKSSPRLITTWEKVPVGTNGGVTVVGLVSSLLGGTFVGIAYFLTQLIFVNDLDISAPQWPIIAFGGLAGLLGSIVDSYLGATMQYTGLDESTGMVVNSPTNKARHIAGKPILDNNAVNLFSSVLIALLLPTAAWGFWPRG

effect of a mutation on the interaction	Variant
with no effect	D20E

Variants of: B3
Conditions: with cep55_human CEP55, Q53EZ4

effect of a mutation on the interaction	Variant
with no effect	P542S
with no effect	R627W
with no effect	R763Q

Variants of: B4
Conditions: with znf24_human ZNF24, P17028
Sequence of znf24_human ZNF24, P17028 (P17028 whole entry): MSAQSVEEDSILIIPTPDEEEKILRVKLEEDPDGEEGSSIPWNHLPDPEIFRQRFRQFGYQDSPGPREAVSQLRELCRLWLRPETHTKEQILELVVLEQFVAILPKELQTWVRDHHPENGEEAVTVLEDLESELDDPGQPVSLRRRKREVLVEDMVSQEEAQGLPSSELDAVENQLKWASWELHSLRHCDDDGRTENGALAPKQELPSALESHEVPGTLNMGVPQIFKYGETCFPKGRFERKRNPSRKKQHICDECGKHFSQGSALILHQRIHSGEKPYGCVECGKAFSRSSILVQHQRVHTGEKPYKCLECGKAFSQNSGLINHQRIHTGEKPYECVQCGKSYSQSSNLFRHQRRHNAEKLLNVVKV

effect of a mutation on the interaction	Variant
with no effect	S22C

Variants of: B4
Conditions: with traf2_human TRAF2, Q12933
Sequence of traf2_human TRAF2, Q12933 (Q12933 whole entry): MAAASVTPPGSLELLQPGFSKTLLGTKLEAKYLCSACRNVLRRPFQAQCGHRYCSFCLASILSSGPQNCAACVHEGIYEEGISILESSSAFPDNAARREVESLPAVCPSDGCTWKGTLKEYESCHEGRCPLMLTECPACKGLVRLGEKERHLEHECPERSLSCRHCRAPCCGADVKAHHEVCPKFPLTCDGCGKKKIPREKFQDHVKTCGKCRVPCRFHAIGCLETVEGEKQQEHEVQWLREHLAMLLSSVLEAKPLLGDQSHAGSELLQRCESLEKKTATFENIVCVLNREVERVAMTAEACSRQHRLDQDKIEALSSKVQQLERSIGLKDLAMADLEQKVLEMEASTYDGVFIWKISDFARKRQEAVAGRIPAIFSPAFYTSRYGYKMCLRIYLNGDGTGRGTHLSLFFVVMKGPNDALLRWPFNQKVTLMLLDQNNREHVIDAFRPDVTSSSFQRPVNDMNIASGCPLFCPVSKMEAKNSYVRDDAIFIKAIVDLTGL

effect of a mutation on the interaction	Variant
with no effect	S22C

Variants of: B5
Conditions: with pe2r3_human PTGER3, P43115

effect of a mutation on the interaction	Variant
with no effect	H347Y

Variants of: B6
Conditions: with kifc3_human KIFC3, Q9BVG8

effect of a mutation on the interaction	Variant
with no effect	P11A

Variants of: B7
Conditions: with chch2_human CHCHD2, Q9Y6H1

effect of a mutation on the interaction	Variant
with no effect	A24V
